# Data: IntAct's records for PubMed 18772386
# B1: Mpv17-like protein (Mus musculus), Q99MS3-1 (parent)
# chain: MASWWRAFPQAARRYPWPTNVLLYAGLFSAGDALQQRLRGGPADWRQTRRVATLAVTFHGNFNYVWLRLLERALPGRAPRTVLAKVLCDQTVGGPIALSAFYVGMSVLQGKDDIFLDLKQKFWNTYKSGLMYWPFVQLTNFSLVPVHWRTAYTGLCAFLWATFLCFSQQSGDGTLQSIFIFLRRKEASDKSPEK
# partner: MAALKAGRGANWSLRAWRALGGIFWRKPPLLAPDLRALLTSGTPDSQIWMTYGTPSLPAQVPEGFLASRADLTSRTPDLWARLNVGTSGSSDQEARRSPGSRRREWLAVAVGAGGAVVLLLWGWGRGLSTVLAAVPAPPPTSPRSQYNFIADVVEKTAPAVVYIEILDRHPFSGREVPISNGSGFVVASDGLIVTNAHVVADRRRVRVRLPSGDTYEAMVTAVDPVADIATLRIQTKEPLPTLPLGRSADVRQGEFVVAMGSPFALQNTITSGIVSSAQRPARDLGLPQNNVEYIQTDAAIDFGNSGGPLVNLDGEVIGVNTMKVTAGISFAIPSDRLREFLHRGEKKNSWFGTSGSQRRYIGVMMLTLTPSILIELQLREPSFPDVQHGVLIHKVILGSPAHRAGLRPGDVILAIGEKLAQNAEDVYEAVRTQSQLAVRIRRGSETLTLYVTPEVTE
# Variants of: B1
# Details: with htra2_mouse Htra2, Q9JIY5
row,effect of a mutation on the interaction,Variant
1,decreasing interaction,D112A;I114A
